Source: patent US12404346B2, “Anti-naloxone and anti-naltrexone monoclonal antibodies and methods of production and use thereof” (Siemens Healthcare Diagnostics Inc., priority 2019, dated 2025)

Columns and labels:
[1] = Randox naloxone assay, competitive chemiluminescent immunoassay; cited from earlier work
[2] = naloxone and naltrexone specific immunoassays (FIG. 9, FIG. 10); assay type: binding; conditions: FIG. 9 and FIG. 10
Description: An EMIT® II (enzyme multiplied immunoassay, Siemens Healthineers, Newark, DE) Plus Naloxone and/or Naltrexone Assay is a homogeneous enzyme immunoassay technique used for the analysis of specific compounds in human urine. The assay is based on competition between drug in the specimen and drug labeled with glucose-6-phosphate dehydrogenase (rG6PDH) for antibody binding sites. Enzyme activity decreases upon binding to the antibody, so the drug concentration in the specimen can be measured in terms of enzyme activity. Active enzyme converts nicotinamide adenine dinucleotide (NAD) to NADH in the presence of glucose-6-phosphate (G6P), resulting in an absorbance change that is measured spectrophotometrically.
The EMIT® assay format comprises an antibody/substrate reagent, known as reagent 1. This reagent includes the antibody as well as buffers, preservatives, and stabilizers for the assay. The EMIT® assay format also comprises an enzyme reagent, known as reagent 2. This reagent includes the conjugate as well as buffers, preservatives, and stabilizers for the assay.

[3] = inhibition ELISA, anti-naltrexone monoclonal antibodies against key opioids (FIG. 8); assay type: binding; conditions: free drug 20 μg/mL, plates coated with ovalbumin conjugate
Description: (§1) Mice with good anti-drug antibody titers and binding to free drug in the ELISA inhibition assays were selected to proceed with generation of monoclonal antibodies, in a similar manner to that described in U.S. Pat. No. 9,815,907 (issued to Sharma et al. on Nov. 14, 2017). In particular, mice with highest titers and best specificity were boosted three days prior to fusion. On the day of fusion, spleen cells were harvested from these mice and were fused with myeloma cell line P3X63Ag8.653 using PEG-assisted fusion protocols. After about ten days, hybridoma supernatants were screened for anti-naloxone and anti-naltrexone antibodies using a plate ELISA (direct binding and inhibition ELISA for specificity). Positive clones were further expanded and sub-cloned, and supernatants were purified using a Protein A SEPHAROSE® (GE Healthcare, Chicago, IL) column. Purified antibody samples were tested using ELISA for binding to the immunogen (i.e., a conjugate of drug-carrier protein) and to free opioids.
(§2) Antibody solution (Immune mouse bleeds or hybridoma clones supernatant or purified antibody) was screened using an inhibition ELISA procedure according to the following protocol. […] Plate coating was performed for 1 hour or more at room temperature or overnight at about 2° C. to 8° C. The plates were then flicked dry and blocked with 200 μL per well of blocking buffer solution (0.5% Casein solution in PBS containing 0.05% TWEEN® 20 surfactant (Croda International PLC, Snaith, United Kingdom). Plate blocking was performed by incubation for 30 minutes or more at room temperature with plate shaking. The plates were washed using a plate washer (BioTek®, Winooski, VT) with plate stacker with the washing buffer being MILLIQ® water (Millipore Corporation, Billerica, MA) containing 0.05% TWEEN® 20. The monoclonal antibody to be screened was then added to each well along with free drug as follows: 25 μL per well of appropriately diluted culture supernatant (or antibody solution) and added 25 μL of 20 μg/mL of free drug. Incubation was performed for about 1 hour at room temperature with plate shaking. The plate was washed. An enzyme conjugate (goat anti-mouse IgG coupled to HRP diluted in blocking buffer diluted to 1:3000) was added at 50 μL per well. Incubation was performed for about 1 hour at room temperature with shaking. The plate was then washed, and a chromogenic solution (TMB from Moss Substrates, Pasadena MD) was added at a volume of 100 μL per well. If a desired antibody was present in the hybridoma supernatant, then a decrease in optical density was observed compared to the well containing no free drug. The plates were read at 650 nm wavelength using an ELISA plate reader (Molecular Devices, San Jose, CA). Note: appropriate dilution of antibody solution was determined by performing a titration ELISA. The antibody dilution was chosen where around 1.0 optical density was observed.

[4] = hydrocodone assay with antibody blocker (FIG. 13); conditions: cutoff 300 ng/ml
[5] = inhibition ELISA, anti-naloxone monoclonal antibodies against key opioids (FIG. 7); assay type: binding; conditions: free drug 20 μg/mL, plates coated with ovalbumin conjugate
Description: as §1, §2

[6] = opiate enzyme multiplied immunoassay with antibody blocker (FIG. 11, FIG. 12); conditions: cutoff 300 ng/mL; FIG. 11 and FIG. 12

C=CCN1CC[C@]23c4c5ccc(O[C@@H]6O[C@H](C(=O)O)[C@@H](O)[C@H](O)[C@H]6O)c4O[C@H]2C(=O)CC[C@@]3(O)[C@H]1C5 [naloxone 3-B-D glucuronide]
level of cross-reactivity [1]: 70.6%

B1: 180C 2A12: anti-naltrexone monoclonal antibody generated using naltrexone-3-Val-mcKLH; heavy chain SEQ ID NO:1, light chain SEQ ID NO:5 (antibody)
heavy: MGWSWIFLFLLSGTAGVHCQVQLQQSGPELVKPGGSVKLSCKASGYIFNDYTIHWMKQSPGQGLEWIGWMNRRSFNTMYNDKFKGKATMTVDKSSSTAYIQLSSLTSDDSAVYFCVRDVYDNLDYWGQGTSVTVSSAKTTPPSVYPLAPGSAAQTNSMVTLGCLVKGYFPEPVTVTWNSGSLSSGVHTFPAVLQSDLYTLSSSVTVPSSTWPSETVTCNVAHPASSTKVDKKIVPRDCGCKPCICTVPEVSSVFIFPPKPKDVLTITLTPKVTCVVVDISKDDPEVQFSWFVDDVEVHTAQTQPREEQFNSTFRSVSELPIMHQDWLNGKEFKCRVNSAAFPAPIEKTISKTKGRPKAPQVYTIPPPKEQMAKDKVSLTCMITDFFPEDITVEWQWNGQPAENYKNTQPIMDTDGSYFIYSKLNVQKSNWEAGNTFTCSVLHEGLHNHHTEKSLSHSPGK
light: MKLPVRLLVLMFWIPASSSDVLMTQTPLSLPVSLGDQASISCRSSQSIVHSNGNTYLEWYLQKPGQSPRLLIYKVSNRFSGVPDRFSGSGSGTDFTLRISRVEAEDLGLYYCFQGSHVPLTFGAGTKLELKRADAAPTVSIFPPSSEQLTSGGASVVCFLNNFYPRDINVKWKIDGSERQNGVLNSWTDQDSKDSTYSMSSTLTLTKDEYERHNSYTCEATHKTSTSPIVKSFNRNEC
modifications: Amino Acid sequence of heavy chain of monoclonal antibody SHC 004; Amino acid sequence of Light Chain of monoclonal antibody SHC 004
detection of naloxone and naltrexone in specific assays [2]: capable of detecting naloxone in addition to naltrexone, albeit at a lower specificity compared to naltrexone | specificity for naltrexone over the other key opioids tested in the inhibition ELISA assay [3]: good specificity for naltrexone | effect of the antibody blocker on amount of naloxone and naltrexone giving a negative response [4]: increase the amount of naloxone and naltrexone that produces a negative response to the cutoff

B2: 179A 6H6: anti-naloxone monoclonal antibody generated using naloxone-3-Val-mcKLH; heavy chain SEQ ID NO:221, light chain SEQ ID NO:225 (antibody, V domains shown)
VH: MYLGLNCVIIVFLLKGVQSEVKLEESGGGLVPPGGSMKLSCSVSGFTFSDAWIDWVRQSPEKGLEWIAESRNKANNYAIYYTESVKGRFTISRDDSKSRVYLQMNNLRVEDTGIYYCTGPDYDSYWGGTLVTVSA
VL: MEFQTQVFVFVLLWLSGVDGDVVMTQSQKIMSTSVGDRVSITCKASQNVRTAVTWYQLKPGQSPKALIYLASNRHTGVPDRFRGSGSGTDFTLTIINVQSEDLADYFCLQHWNYPLTFGAGTKLELK
modifications: Amino acid sequence of heavy chain of monoclonal antibody 179A 6H6; Amino acid sequence of light chain of monoclonal antibody 179A 6H6
detection of naloxone and naltrexone in specific assays [2]: detects both naloxone and naltrexone at substantially the same specificity | specificity for naloxone over the other key opioids tested in the inhibition ELISA assay [5]: good specificity for naloxone | change of naloxone/naltrexone cross reactivity response in the presence of the antibody blocker [6]: cross reactivity of naloxone changes from a positive to a negative response to the cutoff
